# Target: T1, ca094_human C1orf94 (UniProt Q6P1W5)
# T1 sequence: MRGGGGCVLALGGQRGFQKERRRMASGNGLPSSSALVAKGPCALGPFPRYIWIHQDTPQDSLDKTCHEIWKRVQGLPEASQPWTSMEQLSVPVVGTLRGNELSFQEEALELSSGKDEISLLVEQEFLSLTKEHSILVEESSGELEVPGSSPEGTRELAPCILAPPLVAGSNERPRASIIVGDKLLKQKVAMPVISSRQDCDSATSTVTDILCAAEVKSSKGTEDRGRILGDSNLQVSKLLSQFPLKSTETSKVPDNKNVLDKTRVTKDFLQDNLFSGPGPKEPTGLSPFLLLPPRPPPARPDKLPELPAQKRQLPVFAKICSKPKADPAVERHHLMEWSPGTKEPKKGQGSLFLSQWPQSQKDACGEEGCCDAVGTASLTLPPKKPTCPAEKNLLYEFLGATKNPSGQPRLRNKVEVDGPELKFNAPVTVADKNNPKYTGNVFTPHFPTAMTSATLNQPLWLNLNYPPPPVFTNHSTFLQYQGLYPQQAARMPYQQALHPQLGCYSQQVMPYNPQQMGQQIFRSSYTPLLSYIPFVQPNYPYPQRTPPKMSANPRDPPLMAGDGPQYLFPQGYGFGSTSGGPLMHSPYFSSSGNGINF
substance,measurement,value
Golgi reassembly-stacking protein 2 (Homo sapiens) (from UniProt Q9H8Y8) L320R,effect of a mutation on the interaction,with no effect

# From IntAct's records for PubMed 29892012
